Literature values in PMC4525192 (European Journal of Nuclear Medicine and Molecular Imaging, 2014).

Tested on: tumour
Conditions: intravenously administered

Compound: C[C@@H](O)[C@@H]1NC(=O)[C@H](CCCCN)NC(=O)[C@@H](Cc2c[nH]c3ccccc23)NC(=O)[C@H](Cc2ccc(O)cc2)NC(=O)[C@@H](NC(=O)[C@@H](Cc2ccccc2)NC(=O)CN2CCN(CC(=O)O)CCN(CC(=O)O)CCN(CC(=O)O)CC2)CSSC[C@@H](C(=O)N[C@H](CO)[C@@H](C)O)NC1=O [DOTATOC, (DOTA^0-Phe^1-Tyr^3) octreotide]
- Time after injection at which 80 % of Umax is reached: 45 min
- Time of tumoral accumulation maximum (Umax) after injection: about 70 min
